Test results from patent publication US20170226155A1.
pIC50: −log10 of the molar value.

Each substance was assayed against DPP IV (assay: enzyme inhibition (A410); pH 2, 10 minutes).

Substance	pIC50
ChgAla-tBugboroPro	< 4.66

These substances were tested against DP IV (assay: enzyme inhibition (A410); pH 2, 10 minutes).

Substance	pIC50
ChgAib-EthylGly-boroPro	4.89

The substances below were run against DPP IV (assay: enzyme inhibition (A410); pH 8, 30 minutes).

Substance	pIC50
ChgAla-tBugboroPro	< 4.66

The substances below were run against DP IV (assay: enzyme inhibition (A410); pH 8, 30 minutes).

Substance	pIC50
ChgAib-EthylGly-boroPro	5.49

Each substance was assayed against - (assay: enzyme inhibition (fluorescence); pH 7.6, +DPIV).

Substance	pIC50
AspProGlyboroLeu	7.03

What follows are substances tested against - (assay: enzyme inhibition (fluorescence); pH 7.6, -DPIV).

Substance	pIC50
AspProGlyboroLeu	6.63

Each substance was assayed against DPP IV (assay: enzyme inhibition (A410); pH 8, 10 minutes).

Substance	pIC50
ChgAla-tBugboroPro	< 4.66

The substances below were run against - (assay: enzyme inhibition (A410); pH 2).

Substance	pIC50
Propyl Gly-boro-Pro	8.60
tert-Butyl Gly-boro-Pro	8.47

The substances below were run against DPP IV (assay: enzyme inhibition (A410); pH 2, 30 minutes).

Substance	pIC50
ChgAla-tBugboroPro	< 4.66

These substances were tested against DP IV (assay: enzyme inhibition (A410); pH 2, 30 minutes).

Substance	pIC50
ChgAib-EthylGly-boroPro	5.68

The substances below were run against - (assay: enzyme inhibition (A410); pH 8).

Substance	pIC50
Propyl Gly-boro-Pro	5.55
tert-Butyl Gly-boro-Pro	6.52

The substances below were run against - (assay: enzyme inhibition (fluorescence); pH 2, -DPIV).

Substance	pIC50
AspProGlyboroLeu	6.63

The substances below were run against Dipeptidyl amino peptidase type IV (DPP IV) (assay: cell-based or functional assay).

Substance	IC50 at ten minutes, pH 2	IC50 at ten minutes, pH 8	IC50, pH 2 (Tetrapeptide Prodrugs)	IC50, pH 8 (Tetrapeptide Prodrugs)
AibAlaValboroPro (peptide)	2 µM	–	–	–
ChgAlaEtgboroAla (peptide)	1.3 µM	2.5 µM	–	–
ChgAlaEtgboroPro (peptide)	600 nM	802 nM	–	–
ChgAlaProboroPro (peptide)	2 µM	30 µM	2 mM	30 mM
ChgAlaValboroPro (peptide)	190 nM	360 nM	190 nM	360 nM
ChgAzeEtgboroPro (peptide)	15 nM	16 nM	–	–
ChgDhpEtgboroPro (peptide)	15 nM	17 nM	–	–
ChgHypEtgboroPro (peptide)	17 nM	25 nM	–	–
ChgPipEtgboroPro (peptide)	19 nM	14 nM	–	–
ChgProChgboroAla (peptide)	180 nM	170 nM	180 nM	170 nM
ChgProChgboroPro (peptide)	14 nM	14 nM	–	–
ChgProEtgboroPro (peptide)	12 nM	14 nM	–	–
ChgProtBugboroAla (peptide)	6.8 µM	8.4 µM	–	–
ChgProtBugboroPro (peptide)	1.5 µM	8 µM	–	–
ChgThz4EtgboroPro (peptide)	13 nM	16 nM	–	–
Cyclohexylglycine-Proline-Ala-boroProline (peptide)	17 nM	17 nM	19 nM	15 nM
Cyclohexylglycine-Proline-Valine-boroProline (peptide)	70 nM	70 nM	65 nM	72 nM
N-Me-Gly-3,4 dehydroproline-ALA-PRO boronic acid (peptide)	39 nM	34 nM	–	–
tBugProAlaboroPro (peptide)	14 nM	18 nM	–	–

Each substance was assayed against - (assay: enzyme inhibition (A410); pH 12).

Substance	pIC50
Propyl Gly-boro-Pro	6.70
tert-Butyl Gly-boro-Pro	7.72

Each substance was assayed against - (assay: enzyme inhibition (fluorescence); pH 2, +DPIV).

Substance	pIC50
AspProGlyboroLeu	6.97
